Common to all, as to test: cell-based or functional assay
In test [1] the target is T1, Mouse IL-6 (mouse, UniProt P08505 25-211, limits assumed).
T1 sequence (looked up): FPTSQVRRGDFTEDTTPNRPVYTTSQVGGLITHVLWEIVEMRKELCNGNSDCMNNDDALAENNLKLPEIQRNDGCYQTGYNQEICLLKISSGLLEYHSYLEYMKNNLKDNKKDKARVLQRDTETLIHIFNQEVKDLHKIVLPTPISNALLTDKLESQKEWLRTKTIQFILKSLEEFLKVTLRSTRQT

Test [2] deals with T2, Rat IL-6 (rat, UniProt P20607 25-211, limits assumed).
T2 sequence (looked up): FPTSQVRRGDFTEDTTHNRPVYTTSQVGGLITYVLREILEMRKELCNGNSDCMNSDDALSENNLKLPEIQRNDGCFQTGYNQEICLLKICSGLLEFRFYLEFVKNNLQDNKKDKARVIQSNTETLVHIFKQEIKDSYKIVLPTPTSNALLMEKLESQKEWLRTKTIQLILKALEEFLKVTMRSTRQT

In test [3] the target is T3, Cynomolgus monkey IL-6 (cynomolgus monkey, UniProt P79341 28-212, limits assumed).
T3 sequence (looked up): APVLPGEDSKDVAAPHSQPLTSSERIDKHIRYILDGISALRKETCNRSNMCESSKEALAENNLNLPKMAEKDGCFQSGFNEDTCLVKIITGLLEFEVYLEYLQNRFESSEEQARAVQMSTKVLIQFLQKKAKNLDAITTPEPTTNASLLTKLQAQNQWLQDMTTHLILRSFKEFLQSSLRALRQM

Test [4] deals with Human IL-6 (human, UniProt P05231 30-212).

B1: Ab1 (antibody, human IgG1, kappa, N297A, V domains shown)
VH: EVQLVESGGGLVQPGGSLRLSCAASGFSLSNYYVTWVRQAPGKGLEWVGIIYGSDETAYATSAIGRFTISRDNSKNTLYLQMNSLRAEDTAVYYCARDDSSDWDAKFNLWGQGTLVTVSS
VL: AIQMTQSPSSLSASVGDRVTITCQASQSINNELSWYQQKPGKAPKLLIYRASTLASGVPSRFSGSGSGTDFTLTISSLQPDDFATYYCQQGYSLRNIDNAFGGGTKVEIKR
As for B1, the “IC50 (pM), T1165 cell proliferation assay” value stood at 1840 pM in test [1], 2060 pM in test [2], 12 pM in test [3] and 13 pM in test [4].
